Reference: patent publication US20130171070A1 (Genentech, published 2013)

B1: humanized anti-Factor D Fab clone #250 (Fab, V domains shown)
VH: QVQLVQSGPELKKPGASVKVSCKASGYTFTNYGLNWVRQAPGQGLEWMGWINTYTGETTYADDFKGRFVFSLDTSVSTAYLQISSLKAEDTAVYYCEREGGVNNWGQGTLVTVSS
VL: DIQVTQSPSSLSASVGDRVTITCITSTDIDDDMNWYQQKPGKVPKLLISHGNTLRPGVPSRFSGSGSGTDFTLTISSLQPEDVATYYCLQSDSLPYTFGQGTKLEIK
B2: humanized anti-Factor D Fab clone #416 (Fab, V domains shown)
VH: QVQLVQSGPELKKPGASVKVSCKASGYTFTSYGMNWVRQAPGQGLEWMGWINTYTGETTYADDFKGRFVFSLDTSVSTAYLQISSLKAEDTAVYYCEREGGVNNWGQGTLVTVSS
VL: DIQVTQSPSSLSASVGDRVTITCITSTDIDDDMNWYQQKPGKVPKLLISDGNTLRPGVPSRFSGSGSGTDFTLTISSLQPEDVATYYCLQSDSLPYTFGQGTKLEIK
B3: humanized anti-Factor D Fab clone #56 (Fab, V domains shown)
VH: QVQLVQSGPELKKPGASVKVSCKASGYTFTNYGMNWVKQAPGQGLEWMGWINTYTGETTYADDFKGRFVFSLDTSVSTAYLQISSLKAEDTATYYCEREGGVDNWGQGTLVTVSS
VL: DIQVTQSPSSLSASVRDRVTITCITSTDIDDDMNWYQQKPGKVPKLLISGGNTLRPGVPSRFSGSGSGTDFTLTISSLQPEDVATYYCLQSDNLPYTFGQGTKLEIK
B4: chimeric 166-32 Fab (Fab, V domains shown)
VH: QIQLVQSGPELKKPGETVKISCKASGYTFTNYGMNWVKQAPGKGLKWMGWINTYTGETTYADDFKGRFVFSLETSASTAYLEINNLKNEDMATYFCEREGGVDNWGQGTTLTVSS
VL: ETTVTQSPASLSMAIGEKVTIRCITSTDIDDDMNWYQQKPGEPPKLLISGGNTLRPGVPSRFSSSGYGADFVFTIDNMLSEDVADYYCLQSDNLPYTFGGGTRLEIK
notes: Tested as a Fab; also called chimeric Fab

Target: T1, Human factor D (Advanced Research Inc) (human, UniProt P00746 26-253)
T1 construct: Amine-coupled directly to a CM5 chip for BIAcore; also called factor D antigen
Experiment: SPR (BIAcore), human factor D amine-coupled to CM5 chip, Fab as analyte, 1:1 model, global fit
Protocol: Immobilization—Human factor D (Advanced Research Inc, 0.1 mg/ml) was directly immobilized onto the CM5 chip (BiaCore) using amine-coupling method. The procedure is briefly described as following: (1) Constant flow (PBS) is at 5 μl/min, (2) Injection of 35 μl EDC/NHS (1:1). (3) Injection of 35 μl of human factor D in acetate buffer, pH 4.5. (4) Block the activated group by injection of 35 μl etholamine. (5) Clean-up the surface by 5 μl 10 mM Glycine pH 1.5.
Kinetic analysis—All anti-human factor D Fabs were diluted in PBS buffer. Each sample was prepared in a series of concentrations: 12.5 nM, 25 nM. 50 nM, 75 nM, 100 nM, 125 nM, and 150 nM, with 40 μl injection pulse at high acquisition rate. Regeneration was accomplished by applying 5 μl pulse of 10 mM Glycine at pH 1.5. Kinetic parameters were obtained by fitting Fabs binding traces to 1:1 binding model under pseudo-first order kinetic using BIAvaluation version 3.0. All data are obtained by global fitting routine.

T1 sequence (P00746 26-253 limits assumed): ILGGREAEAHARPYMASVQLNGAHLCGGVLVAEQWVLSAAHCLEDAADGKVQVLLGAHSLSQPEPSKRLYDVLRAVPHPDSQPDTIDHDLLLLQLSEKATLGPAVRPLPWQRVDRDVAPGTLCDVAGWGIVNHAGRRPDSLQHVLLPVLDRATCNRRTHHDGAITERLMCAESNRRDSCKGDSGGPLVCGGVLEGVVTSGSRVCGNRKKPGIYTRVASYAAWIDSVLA

| Binder | Kd [nM] | koff [s⁻¹] | kon [M⁻¹ s⁻¹] |
| --- | --- | --- | --- |
| B1 | 0.33 | 0.00019 | 570000 |
| B2 | 0.33 | 0.00018 | 820000 |
| B3 | 2.7 | 0.00098 | 360000 |
| B4 | 2.7 | 0.0012 | 440000 |
